Results published in patent US20020115140A1.

Molecular target: GPA1 protein (yeast) (UniProt P08539)
Assay: cell-based or functional assay

Sequence of UniProt P08539 (P08539 2-472 limits assumed): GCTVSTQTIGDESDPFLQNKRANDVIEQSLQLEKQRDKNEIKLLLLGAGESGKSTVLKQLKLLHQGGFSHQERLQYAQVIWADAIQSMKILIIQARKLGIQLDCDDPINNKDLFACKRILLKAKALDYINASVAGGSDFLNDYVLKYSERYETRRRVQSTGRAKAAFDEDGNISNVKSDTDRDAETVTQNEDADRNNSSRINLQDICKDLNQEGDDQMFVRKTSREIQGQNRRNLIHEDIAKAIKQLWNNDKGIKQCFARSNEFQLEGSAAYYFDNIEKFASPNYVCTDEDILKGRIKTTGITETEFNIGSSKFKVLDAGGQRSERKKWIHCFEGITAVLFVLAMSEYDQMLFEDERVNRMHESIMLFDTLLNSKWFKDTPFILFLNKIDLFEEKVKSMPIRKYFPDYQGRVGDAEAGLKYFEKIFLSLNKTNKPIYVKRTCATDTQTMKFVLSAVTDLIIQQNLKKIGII

- diameter of growth inhibition zone; strain MY169 (sst2-, RATH1.1 under ADH2 promoter); 1 µg alpha factor: 0.8 cm
- diameter of growth inhibition zone; strain MY169 (sst2-, RATH1.1 under ADH2 promoter); 10 µg alpha factor: 1.8 cm
- diameter of growth inhibition zone; strain MY173 (SST2+, RATH1.1 under ADH2 promoter); 10 µg alpha factor: 1.6 cm
Substance: murine RATH1.1 gene product (from UniProt P97428 1-201)
